Laboratory results from patent US20240117325.

target: β-lactoglobulin

Protein	allergenic protein degradation rate	allergenic protein residual rate	reductase activity (AMS labelling, SDS-PAGE)
fusion protein of ferredoxin-thioredoxin reductase (FTRB/FTRA2) and thioredoxin Y2 fused via linker peptide (GGGGS)3 of 15 amino acid residues (protein) chain 1: AKTEPSEKSVEIMRKFSEQYARRSGTYFCVDKGVTSVVIKGLAEHKDSYGAPLCPCRHYDDKAAEVGQGFWNCPCVPMRERKECHCMLFLTPDNDFAGKDQTITSDEIKETTANMGGGGSGGGGSGGGGSAAKKQTFNSFDDLLQNSDKPVLVDFYATWCGPCQLMVPILNEVSETLKDIIAVVKIDTEKYPSLANKYQIEALPTFILFKDGKLWDRFEGALPANQLVERIENSLQVKQ chain 2: DIAVKSAASVDADADLSSSTSLETEEDEKAKEKIGARVRVTVPLKVYHVVRVPEVELMGMEGFIKDYVVLWKGKKISANLPFKVQFVKEIEGRGPVKFFTHLKEDEFELIDPHHHHHH	the degradation rate was 56%	the allergenic protein residual rate was 44%	The reduced form of the allergenic protein was detected in all of (b) to (d) in FIG. 11, confirming reductase activity
fusion protein of ferredoxin-thioredoxin reductase (FTRB/FTRA2) and thioredoxin Y2 fused via linker peptide (GGGGS)2 of 10 amino acid residues (protein) chain 1: AKTEPSEKSVEIMRKFSEQYARRSGTYFCVDKGVTSVVIKGLAEHKDSYGAPLCPCRHYDDKAAEVGQGFWNCPCVPMRERKECHCMLFLTPDNDFAGKDQTITSDEIKETTANMGGGGSGGGGSAAKKQTFNSFDDLLQNSDKPVLVDFYATWCGPCQLMVPILNEVSETLKDIIAVVKIDTEKYPSLANKYQIEALPTFILFKDGKLWDRFEGALPANQLVERIENSLQVKQ chain 2: DIAVKSAASVDADADLSSSTSLETEEDEKAKEKIGARVRVTVPLKVYHVVRVPEVELMGMEGFIKDYVVLWKGKKISANLPFKVQFVKEIEGRGPVKFFTHLKEDEFELIDPHHHHHH	the degradation rate was 58%	the allergenic protein residual rate was 42%	The reduced form of the allergenic protein was detected in all of (b) to (d) in FIG. 11, confirming reductase activity
fusion protein of ferredoxin-thioredoxin reductase (FTRB/FTRA2) and thioredoxin Y2 fused via linker peptide (GGGGS)1 of 5 amino acid residues (protein) chain 1: AKTEPSEKSVEIMRKFSEQYARRSGTYFCVDKGVTSVVIKGLAEHKDSYGAPLCPCRHYDDKAAEVGQGFWNCPCVPMRERKECHCMLFLTPDNDFAGKDQTITSDEIKETTANMGGGGSAAKKQTFNSFDDLLQNSDKPVLVDFYATWCGPCQLMVPILNEVSETLKDIIAVVKIDTEKYPSLANKYQIEALPTFILFKDGKLWDRFEGALPANQLVERIENSLQVKQ chain 2: DIAVKSAASVDADADLSSSTSLETEEDEKAKEKIGARVRVTVPLKVYHVVRVPEVELMGMEGFIKDYVVLWKGKKISANLPFKVQFVKEIEGRGPVKFFTHLKEDEFELIDPHHHHHH	the degradation rate was 29%	the allergenic protein residual rate was 71%	The reduced form of the allergenic protein was detected in all of (b) to (d) in FIG. 11, confirming reductase activity
